Data: patent US11407840B2, “Antibodies to M(H)DM2/4 and their use in diagnosing and treating cancer” (NomoCan Pharmaceuticals LLC, priority 2017, dated 2022)
“Also recorded” adds a separate entry of the source.

B1: NMC-103: mouse monoclonal antibody, IgG1 isotype, binds NMC-P1 (SEQ ID NO:1); VH SEQ ID NO:36, VL SEQ ID NO:37 (antibody, V domains shown)
VH: EVQLQESGGGLVQPGGSLRLSCTTSGFTFTHYYMSWVRQPPGKALEWLGFIRNKAKGYTAEYSASVKGRFTISRDNSQSILYLQMNTLRPEDSATYYCARDIGDNWGQGTLVTVSS
VL: DIVMTQAAFSNPVTLGTSASISCRSSKNLLHSNGITYLYWYLQRPGQSPQLLISRVSNLASGVPNRFSGSESGTDFTLRISRVEAEDVGVYFCAQLLELPYTFGGGTKLEIK
modifications: mAb NMC-103 Heavy Chain Variable Region; mAb NMC-103 Light Chain Variable Region
B2: NMC-204: mouse monoclonal antibody, IgG3 isotype, binds NMC-P2 (SEQ ID NO:2); VH SEQ ID NO:38, VL SEQ ID NO:39 (antibody, V domains shown)
VH: EVQLQESGSVLVRPGASVKLSCKASGDTLSGSWMHWAMQRPGQGLEWIGEIHLNRGTTNYNEKFKGKATVTVDTSSSTAYVDLSSLTSEDSAVYYCARSPGFAYWGQGTLVTVSA
VL: GIVMTQAAPSVPVTPGESVSISCRSSKSLLHSNGNSYLYWFLQRPGQSPQLLIYRMSNLASGVPDRFSGSGSGTAFTLRITRVEAEDVGVYYCMQHLEYPFTFGSGTKLEIK
modifications: mAb NMC-204 Heavy Chain Variable Region; mAb NMC-204 Light Chain Variable Region

Columns and labels:
Format in all cases: binding
[1] = target: NMC-P1 peptide (SEQ ID NO:1), amino acids 1-15 of HDM2 (Homo sapiens, UniProt Q00987); assay: Peptide-ELISA, NMC-P1 peptide; settings: 5 μg/ml peptide dried on plate; OD 450 nm
Method: Peptide-ELISA Methodology: 5 μg/ml of NMC-P1, NMC-P2 or NMC-P3 peptide antigen was dried onto a 96-well ELISA plate overnight. Plates were then blocked with 5% BSA in 1× phosphate-buffered saline (PBS) (100 ? /well) for 2 hours at room temperature. Microplate wells were then washed 5 times with 300 ? of ice cold 1× PBS. Appropriate dilutions of monoclonal antibodies NMC-103, NMC-204 or NMC-303 in 1% bovine serum albumin (BSA) in PBS solution were then incubated with their corresponding peptides (NMC-P1, NMC-P2 or NMC-P3, respectively) at room temperature. After 2 hours, wells were washed 5 times with 300 ? ? ice-cold PBS/well and 100 ? secondary antibody (HRP-labeled Goat anti-Mouse F(ab′)2 H&L cross-adsorbed secondary antibody (HRP-GaM F(ab′)2), ThermoFisher, Cat. No. A24524) diluted 1:2500 to 1:5000 in PBS-1% BSA solution were added and the incubation continued at room temperature. After 1 hour, the wells were washed again 5 times with 200 ? of ice-cold PBS and 50 μiL of the TMB Substrate Solution (1-StepTM Ultra TMB-ELISA, ThermoFisher, Cat. No. 34028) were added to each well and color was allowed to develop for 30 minutes at room temperature. The reaction was stopped by addition of 50 μ ? ? of stop solution (ThermoFisher, Cat. No. SSO4) to each well and absorbance of each well was read immediately for optical density (OD) at 450 nm.

[2] = test system: human breast cancer MCF-7 cells; assay: Cell-ELISA, intact cells; settings: mAb 1 μg/mL, FIGS. 3-5
Method: (§1) Cell-ELISA Methodology: 8,000-10,000 cells/well of a 96-well microplate were grown overnight. The next day, unbound cells were washed off with sterile 1× PBS. The cells in each well were fixed with freshly prepared 4% buffered paraformaldehyde (pH 7.2) for 1 hour followed by 3 washes with 1× PBS. The wells were then blocked with 5% BSA in PBS (100 ? /well) for 2 hours at room temperature. Microplate wells were then washed 5 times with 300 ? of ice cold 1× PBS. MAbs NMC-103, NMC-204 or NMC-303 at 1 μg/mL in 1% BSA/PBS were then incubated with various cancer or normal untransformed cells for 2 hours at room temperature. Wells were then washed with 300 ? of ice-cold 1× PBS for 5 times and corresponding secondary antibody HRP-GaM F(ab′)2 diluted 1:2500 or 1:5000 in PBS with 1% BSA were added at 100 ? /well for 1 hour at room temperature followed by washing 5 times with 300 ? of ice-cold 1× PBS. TMB Substrate Solution (1-StepTM Ultra TMB-ELISA, ThermoFisher, Cat. No. 34028) was then added at 50 ? ? to each microplate well and incubated at room temperature for 30 minutes. The reaction was stopped by addition of 50 μL, of stop solution (ThermoFisher, Cat. No. SSO4) to each well and absorbance of each well was measured at OD450 nm. The absorbance value of each experimental well was corrected for the absorbance value obtained from wells treated with isotype-identical mAbs included in each experiment. The results are thus expressed as “relative binding”.

[3] = test system: human pancreatic cancer MIA PaCa-2 cells; assay: Cell-ELISA, intact cells; settings: for binding to intact, EDTA-released MiaPaCa-2 cells, cell-ELISA: EDTA 10 mmols, pH 7.2, 5 min, 37° C., FIG. 10; for binding to intact MIA PaCa-2 cells when competed with NMC-P2 peptide / binding to intact MIA PaCa-2 cells when competed with soluble NMC-P1 peptide: FIG. 8; for relative binding (reactivity) to intact cells, cell-ELISA: MIA PaCa-2, mAb 1 μg/mL, FIGS. 3-5
Method: as §1

[4] = test system: mouse Lewis Lung LL/2 cancer cells; assay: Flow cytometry, EDTA versus trypsin, intact versus permeabilized cells; settings: antibody 5 μg/ml, FIG. 11
Method: Flow Cytometry Methodology: Cells that had been allowed to grow to about 80% confluency in 25 cm^2 tissue culture flasks were released with either EDTA (10 mmols; pH7.2; 5 min, 37° C.) or Trypsin (Gibco TrypLE Express), fixed with freshly made 4% buffered (pH 7.4) paraformaldehyde for 1 h at room temperature, washed several times with a large volume of ice-cold PBS, and blocked for 30 minutes at room temperature with 5% human serum albumin in PBS (intact, non-permeabilized cells). After establishing viability, the cell number was adjusted to 10^6 cells/ml and kept in ice-cold PBS until staining. Another set of the same cells was released with either EDTA or Trypsin and fixed with 4% buffered paraformaldehyde as above, then washed and blocked with 5% human serum albumin in PBS, and was treated separately with Triton X-100 (0.1% in PBS) (International Biotechnologies Inc. 07100) for 5 minutes at room temperature for membrane permeabilization. After washing off the Triton X-100 solution with PBS the cells were adjusted to 10^6 cells/ml and stored in ice-cold PBS. Cells (10^6/ml) from each preparation were then incubated either with 5 μg/ml of mAb to Na+/K+ ATPase ? -1 (Abeam, Cat. No. ab2826), 5 μg/ml of mAb NMC-103, or 5 μg/ml of mAb NMC-204 for 90 min at room temperature. Following primary antibody incubation, cells were washed 3 times with ice-cold PBS followed by incubation with rabbit anti-mouse PE-Cy5 labeled secondary antibody (PE-Cy5-RaM IgG (H&L); Invitrogen, Cat. No. M35018) at room temperature. Sixty minutes later the cells were washed 3 times with PBS and subjected to flow cytometry analysis (BD Canto Flow Cytometry). Controls to establish background fluorescence included the analysis of samples of unstained cells as well as cells that had been processed with secondary antibody under the same conditions as used in the experimental samples.
To further validate that the epitopes of the plasma membrane M(H)DM2 are in fact extracellularly accessible sequences on cancer cells, binding of mAbs NMC-103, NMC-204 and NMC-303 was performed on mouse Lewis Lung LL/2 cancer cells under treatment conditions of EDTA versus trypsin. Both of these conditions were also tested on intact versus permeabilized cells. FIG. 11 panels A, B and C present flow cytometry data on % cells stained with mAbs NMC-103, NMC-204 and anti-Na+/K+ ATPase ? -1, respectively. Each antibody was reacted with cells from four treatment conditions: EDTA-treated intact cells, EDTA-treated permeabilized cells, trypsin-treated intact cells, trypsin-treated permeabilized cells. […] However, when trypsin-treaded cells were permeabilized, the above reduction in binding was compensated by reactivity of the antibodies to intracellular MDM2 or Na+/K+ ATPase a-1.

[5] = EDTA-treated permeabilized cells (Triton X-100)

Row | Molecule | binding to NMC-P1 peptide (peptide-ELISA) [1] | relative binding (reactivity) to intact cells, cell-ELISA [2] | binding to intact, EDTA-released MiaPaCa-2 cells, cell-ELISA [3] | binding to intact MIA PaCa-2 cells when competed with NMC-P2 peptide [3] | binding to intact MIA PaCa-2 cells when competed with soluble NMC-P1 peptide [3] | binding to intact MIA PaCa-2 cells after pre-incubation with full-length recombinant HDM2 ([3]; FIG. 9) | relative binding (reactivity) to intact cells, cell-ELISA [3] | % cells stained (flow cytometry) ([4]; EDTA-treated intact cells) [%] | % cells stained (flow cytometry) [4, 5] [%] | % cells stained (flow cytometry) ([4]; trypsin-treated intact cells) [%]
1 | B1 | bound; also recorded: strong binding | reactivity | bound | did not have any effect | completely abolished | reduced | reactivity | 70.4 | 75.8 | 36.8
2 | B2 | did not bind | reactivity | bound | competed | not with NMC-P1 | – | reactivity | 51.2 | 52.85 | 27
